Measured values as given in the supplement of paper PMC9112550, “Optimization of the antimicrobial peptide Bac7 by deep mutational scanning” (BMC Biology, 2022).

Test system: Escherichia coli TOP10
Experiment: shrunken log2 fold change of peptide-encoding DNA abundance (4.5 h post-induction vs induction); higher = less antimicrobial activity (less host growth inhibition)
Conditions: time post-induction: 4.5 h; library: site-saturation at positions 5, 18, 19, 20
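Also: peptides expressed intracellularly from a pBAD plasmid library in pooled LB shake-flask culture, induced with 0.3% L-arabinose, DNA abundance read by NGS, three biological replicates, DESeq2 with apeglm shrinkage.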

| Sequence | shrunken log2 fold change |
| --- | --- |
| RRIRLRPPRLPRPRPRPPSPPRP | 0.58 |
| RRIRNRPPRLPRPRPRPFLVPRP | -0.0697 |
| RRIRERPPRLPRPRPRPSAFPRP | -0.089 |
| RRIRSRPPRLPRPRPRPDTQPRP | -0.00981 |
| RRIRARPPRLPRPRPRPVPHPRP | 0.0133 |
| RRIRIRPPRLPRPRPRPVYQPRP | -0.649 |
| RRIRYRPPRLPRPRPRPMYFPRP | -0.48 |
| RRIRNRPPRLPRPRPRPKALPRP | 0.0983 |
| RRIRHRPPRLPRPRPRPCRVPRP | -0.242 |
| RRIRTRPPRLPRPRPRPPRSPRP | 0.529 |
| RRIRWRPPRLPRPRPRPAQLPRP | 1.63 |
| RRIRGRPPRLPRPRPRPEQNPRP | 1.31 |
| RRIRKRPPRLPRPRPRPLWHPRP | 0.0951 |
| RRIRSRPPRLPRPRPRPGNCPRP | -0.0261 |
| RRIRFRPPRLPRPRPRPWLDPRP | -0.0286 |
| RRIRQRPPRLPRPRPRPHPNPRP | -0.389 |
| RRIRRRPPRLPRPRPRPCEPPRP | -0.0751 |
| RRIRYRPPRLPRPRPRPKSMPRP | -0.584 |
| RRIRTRPPRLPRPRPRPIMPPRP | -0.331 |
| RRIRLRPPRLPRPRPRPDCLPRP | -0.0212 |
| RRIRGRPPRLPRPRPRPMDLPRP | 0.241 |
| RRIRMRPPRLPRPRPRPHLFPRP | -0.0118 |
| RRIRNRPPRLPRPRPRPIRPPRP | -0.00213 |
| RRIRTRPPRLPRPRPRPYLRPRP | -0.163 |
| RRIRTRPPRLPRPRPRPPTNPRP | 0.156 |

| Sequence | shrunken log2 fold change |
| --- | --- |
| RRIRLRPPRLPRPRPRPEIGPRP | 0.0748 |
| RRIRFRPPRLPRPRPRPYDYPRP | -0.107 |
| RRIRSRPPRLPRPRPRPQPRPRP | 0.285 |
| RRIRTRPPRLPRPRPRPDQCPRP | 0.0333 |
| RRIRMRPPRLPRPRPRPERIPRP | 0.0158 |
| RRIRERPPRLPRPRPRPFDTPRP | -0.267 |
| RRIRERPPRLPRPRPRPKDAPRP | -0.222 |
| RRIRCRPPRLPRPRPRPNALPRP | 0.0653 |
| RRIRGRPPRLPRPRPRPNCDPRP | 0.382 |
| RRIRVRPPRLPRPRPRPPADPRP | 0.565 |
| RRIRPRPPRLPRPRPRPTNRPRP | -0.104 |
| RRIRMRPPRLPRPRPRPWLRPRP | 0.0433 |
| RRIRWRPPRLPRPRPRPWCLPRP | -0.334 |
| RRIRQRPPRLPRPRPRPMHMPRP | -0.369 |
| RRIRHRPPRLPRPRPRPVFMPRP | -0.311 |
| RRIRGRPPRLPRPRPRPGCEPRP | 2.03 |
| RRIRKRPPRLPRPRPRPERCPRP | 0.559 |
| RRIRYRPPRLPRPRPRPSHGPRP | -0.274 |
| RRIRGRPPRLPRPRPRPWRGPRP | 0.228 |
| RRIRYRPPRLPRPRPRPGYSPRP | -0.874 |
| RRIRKRPPRLPRPRPRPTWPPRP | 0.766 |
| RRIRHRPPRLPRPRPRPLTFPRP | 0.01 |
| RRIRRRPPRLPRPRPRPCCAPRP | 0.372 |
| RRIRMRPPRLPRPRPRPGPGPRP | 2.09 |
| RRIRIRPPRLPRPRPRPYTAPRP | -1.28 |

| Sequence | shrunken log2 fold change |
| --- | --- |
| RRIRKRPPRLPRPRPRPQSDPRP | 0.247 |
| RRIRGRPPRLPRPRPRPYTYPRP | -0.0842 |
| RRIRKRPPRLPRPRPRPIQPPRP | -0.00952 |
| RRIRTRPPRLPRPRPRPIKNPRP | -0.185 |
| RRIRCRPPRLPRPRPRPAGVPRP | 0.259 |
| RRIRGRPPRLPRPRPRPPYMPRP | -0.0678 |
| RRIRTRPPRLPRPRPRPAQQPRP | 0.233 |
| RRIRNRPPRLPRPRPRPNYGPRP | -0.0781 |
| RRIRERPPRLPRPRPRPLKGPRP | 0.176 |
| RRIRHRPPRLPRPRPRPKDWPRP | 0.207 |
| RRIRRRPPRLPRPRPRPWMFPRP | 0.0935 |
| RRIRTRPPRLPRPRPRPDFAPRP | 0.176 |
| RRIRQRPPRLPRPRPRPKMMPRP | -0.082 |
| RRIRTRPPRLPRPRPRPNNHPRP | -0.345 |
| RRIRRRPPRLPRPRPRPSSHPRP | -0.0976 |
| RRIRIRPPRLPRPRPRPFYIPRP | -0.308 |
| RRIRGRPPRLPRPRPRPMCGPRP | 0.645 |
| RRIRSRPPRLPRPRPRPLPCPRP | -0.00277 |
| RRIRLRPPRLPRPRPRPCIRPRP | -0.265 |
| RRIRVRPPRLPRPRPRPNKCPRP | -0.616 |
| RRIRARPPRLPRPRPRPVIDPRP | -0.066 |
| RRIRIRPPRLPRPRPRPRHQPRP | -0.289 |
| RRIRQRPPRLPRPRPRPKQYPRP | -0.359 |
| RRIRGRPPRLPRPRPRPEWIPRP | 0.142 |
| RRIRNRPPRLPRPRPRPAKQPRP | -0.0201 |

| Sequence | shrunken log2 fold change |
| --- | --- |
| RRIRTRPPRLPRPRPRPQRTPRP | -0.296 |
| RRIRFRPPRLPRPRPRPFTVPRP | -0.246 |
| RRIRVRPPRLPRPRPRPEWCPRP | 0.323 |
| RRIRKRPPRLPRPRPRPFLPPRP | -0.0487 |
| RRIRFRPPRLPRPRPRPEREPRP | 0.292 |
| RRIRLRPPRLPRPRPRPCLLPRP | -0.421 |
| RRIRNRPPRLPRPRPRPDIRPRP | -0.01 |
| RRIRERPPRLPRPRPRPDASPRP | 0.0331 |
| RRIRHRPPRLPRPRPRPMLNPRP | -0.114 |
| RRIRARPPRLPRPRPRPDIRPRP | 0.148 |
| RRIRNRPPRLPRPRPRPCWLPRP | -0.7 |
| RRIRWRPPRLPRPRPRPHLGPRP | 0.14 |
| RRIRSRPPRLPRPRPRPTKHPRP | -0.151 |
| RRIRMRPPRLPRPRPRPNQIPRP | 0.283 |
| RRIRWRPPRLPRPRPRPEQWPRP | 0.724 |
| RRIRDRPPRLPRPRPRPENLPRP | 0.0863 |
| RRIRCRPPRLPRPRPRPQKQPRP | 0.0183 |
| RRIRFRPPRLPRPRPRPEWWPRP | 0.0105 |
| RRIRERPPRLPRPRPRPEDMPRP | -0.0115 |
| RRIRGRPPRLPRPRPRPGHLPRP | 0.0503 |
| RRIRYRPPRLPRPRPRPSIYPRP | -1.09 |
| RRIRGRPPRLPRPRPRPSCTPRP | 0.565 |
| RRIRCRPPRLPRPRPRPFYSPRP | -0.507 |
| RRIRRRPPRLPRPRPRPRQNPRP | 0.419 |
| RRIRVRPPRLPRPRPRPMNLPRP | -0.0749 |

| Sequence | shrunken log2 fold change |
| --- | --- |
| RRIRQRPPRLPRPRPRPYMMPRP | 0.00408 |
| RRIRHRPPRLPRPRPRPFNIPRP | 0.0518 |
| RRIRNRPPRLPRPRPRPWSPPRP | -0.245 |
| RRIRARPPRLPRPRPRPPYTPRP | 0.16 |
| RRIRGRPPRLPRPRPRPSMIPRP | 0.267 |
| RRIRCRPPRLPRPRPRPHKIPRP | -0.217 |
| RRIRFRPPRLPRPRPRPWVGPRP | -0.0721 |
| RRIRGRPPRLPRPRPRPQCVPRP | -0.0809 |
| RRIRQRPPRLPRPRPRPNFMPRP | 0.0789 |
| RRIRPRPPRLPRPRPRPYRIPRP | -0.384 |
| RRIRWRPPRLPRPRPRPFCHPRP | -0.0562 |
| RRIRPRPPRLPRPRPRPFEGPRP | -0.0632 |
| RRIRGRPPRLPRPRPRPVFYPRP | -0.0818 |
| RRIRDRPPRLPRPRPRPASKPRP | -0.0758 |
| RRIRNRPPRLPRPRPRPAMYPRP | -0.112 |
| RRIRSRPPRLPRPRPRPSCLPRP | -0.585 |
| RRIRSRPPRLPRPRPRPMTGPRP | 0.00381 |
| RRIRKRPPRLPRPRPRPVQLPRP | 0.349 |
| RRIRYRPPRLPRPRPRPMNKPRP | -0.187 |
| RRIRDRPPRLPRPRPRPRKKPRP | 0.0136 |
| RRIRTRPPRLPRPRPRPCIQPRP | 0.0196 |
| RRIRPRPPRLPRPRPRPGAHPRP | 0.355 |
| RRIRARPPRLPRPRPRPSGRPRP | 0.0751 |
| RRIRARPPRLPRPRPRPNNPPRP | 0.0346 |
| RRIRDRPPRLPRPRPRPTNCPRP | -0.0515 |
